The values below come from patent publication US20190046659A1.

The target in the assay is human GPC3 on GPC3-positive cells (HepG2, Huh-7, SK-Hep-1 GPC3) (human) (UniProt P51654). In words: cell-based or functional assay.

Consider “chimeric antigen receptor GC33-28BBZ (GC33 scFv-CD28a-CD28b-CD137-CD3 zeta) on T cells”, for which the killing rate of CAR T cells on Huh-7 cells, effector target ratio 1:3 stood at 23%.

As to “chimeric antigen receptor GC33-28Z (GC33 scFv-CD28a-CD28b-CD3 zeta) on T cells”, the killing rate of CAR T cells on Huh-7 cells, effector target ratio 1:1 came to 22% and the killing rate of CAR T cells on Huh-7 cells, effector target ratio 1:3 is 6%.
